# T1: human MAGEB17 (human, UniProt A8MXT2 1-336)
# T1 construct: whole, on cells; FFPE cell pellets; also called MAGE-17
# T1 sequence (looked up): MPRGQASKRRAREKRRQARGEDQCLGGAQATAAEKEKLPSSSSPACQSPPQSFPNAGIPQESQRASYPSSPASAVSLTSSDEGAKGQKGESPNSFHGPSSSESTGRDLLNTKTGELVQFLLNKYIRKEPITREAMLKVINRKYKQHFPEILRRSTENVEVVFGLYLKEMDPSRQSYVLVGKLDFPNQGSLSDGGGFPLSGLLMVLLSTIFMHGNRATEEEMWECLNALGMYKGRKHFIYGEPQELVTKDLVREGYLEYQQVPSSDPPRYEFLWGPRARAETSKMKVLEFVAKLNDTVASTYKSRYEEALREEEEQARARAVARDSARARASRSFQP
# T2: Human MAGEB2 (Melanoma-associated antigen B2) (human, UniProt O15479 1-319)
# T2 construct: Intracellular antigen detected by IHC in FFPE material: CHO cells transfected with human MAGEB2 (mCherry vector with Myc/DDK tags, or ORF without tags)
# T2 sequence: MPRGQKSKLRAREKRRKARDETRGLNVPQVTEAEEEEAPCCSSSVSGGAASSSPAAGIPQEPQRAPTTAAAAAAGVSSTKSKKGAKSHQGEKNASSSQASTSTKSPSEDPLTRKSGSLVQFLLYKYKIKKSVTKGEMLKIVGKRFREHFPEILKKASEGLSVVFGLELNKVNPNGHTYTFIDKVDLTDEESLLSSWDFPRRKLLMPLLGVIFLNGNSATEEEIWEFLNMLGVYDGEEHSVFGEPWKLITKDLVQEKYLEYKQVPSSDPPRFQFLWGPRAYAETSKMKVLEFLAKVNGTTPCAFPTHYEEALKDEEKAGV
# Tests used:
# human MAGEB17 = molecular target: T1, human MAGEB17; experiment: IHC, FFPE CHO cells transfected with human MAGEB17
# Experimental: (§1) FFPE samples were sectioned at 4 μm and mounted on positive charged glass slides. After mounting, paraffin sections were air-dried at room temperature. FFPE TMA samples were received as freshly sectioned and mounted on glass slides. The fully automated IHC assay was performed on a Discovery Ultra Stainer (Ventana Medical Systems, Tucson, AZ) using Ventana Anti-Rabbit HQ (cat #760-4815), Ventana Anti-HQ HRP (cat #760-4820), and Ventana Antibody Diluent with Casein (cat #760-219) (Ventana Medical Systems, Tucson, AZ). The slides were baked on the Discovery Ultra Stainer at 60° C. for 8 minutes, de-paraffinized with Ventana Discovery wash (cat #950-510) for 3 cycles (8 minutes each) at 69° C., and underwent cell conditioning (target retrieval) at 95° C. for 16 minutes (for cell arrays) or 32 minutes (tissues or TMAs) in CC1 buffer (cat #950-500). Following this, slides were incubated with Background Sniper (cat #BS966M, Biocare Medical, Pacheco, CA) in a Ventana Option Prep kit (cat #771-751) for 28 minutes, incubated with CM inhibitor (a part of the Ventana DAB kit cat #760-159) for 12 minutes, and incubated for 1 h at RT with MAGE-B2 antibody diluted with Ventana diluent with Casein in a Ventana Prep kit (cat #770-001) (working concentration at 0.1 μg/ml for cell pellet, or 1-5 ug/ml for tissues) or with a matched concentration of isotype control Rabbit IgG1 antibody. Following this, slides were incubated with the Ventana Anti-Rabbit HQ (cat #760-4815) for 28 minutes at RT, Ventana Anti-HQ HRP (cat #760-4820) for 28 minutes at RT, and signals detected with Ventana DAB chromogen kit (cat #760-159) for 5 minutes at RT. Slides were counterstained with Ventana Hematoxylin II (cat #5266726001) for 8 minutes and Ventana Bluing reagent (cat #526676900) for 4 minutes. Slides were coverslipped and digitized using an Aperio AT2 scanner (Leica Biosystems Inc, Buffalo Grove, IL).
# [1] = molecular target: T2, Human MAGEB2 (Melanoma-associated …); experiment: IHC on FFPE VMRC-LCD cells (endogenous MAGEB2)
# Experimental: as §1
Binder,binding result (human MAGEB17),IHC % Frequency [1] [%],IHC Intensity [1]
"1C3 (antibody, V domains shown, also called MAGE-B2 (IC3); anti-MAGEB2 antibody 1C3) VH: QSLEESGGGLVQPEGSLTLTCTAFGVTLTNYYICWVRQAPGKGLEWVGCIDNANGRTYYASWAKGRFTISKTSSTTGTLQMTSLTAADTATYFCARSLATPLWGPGTLVTVSS VL: DIVMTQTPSSVEAAVGGTVTIKCQASQNISSYLAWYQQKPGQPPKLLIYRASTLASGVPSRFKGSGSGTQFTLTISDLECADAATYYCQSYDDSRSSNFFYAFGGGTEVVVKG",no binding (tested: 0.1 µg/ml),0,0
"4G17 (antibody, IgG1, V domains shown, Rabbit monoclonal IgG1; Tested as supernatant and as small batch purified antibody; also called MAGE-B2 (4G17); anti-MAGEB2 antibody 4G17) VH: QSLEESGGGLVQPEGSLTLTCTASGVTLSNYYICWVRQAPGKGLEWIGCIDNVNGRTYYASWAKGRFTISKTSSTTGTLQMTSLTAADTATYFCARSLATPLWGPGTLVTVSS VL: DIVMTQTPASVEAAVGGTVTIKCQASQNIDSYLAWYQQKPGQPPKLLIYRASTLASGVPSRFKGSGSGTEFTLTISDLECADAATYYCQSYDDSRSSSFFYGFGGGTEVVVK",no binding (tested: 0.1 µg/ml),0,0
"1J15 (antibody, IgG1, V domains shown, Rabbit monoclonal IgG1; Tested as supernatant and as small batch purified antibody; also called MAGE-B2 (IJ15); anti-MAGEB2 antibody 1J15) VH: QSLEESGGGLVQPEGSLTLTCTAFGFTLNNYYICWVRQAPGKGLEWIACIDNANGRTYYASWAKGRFTISKTSSTTVTLQMTSLTAADTATYFCARSLSTPLWGPGTLVTVSS VL: DIVMTQTPASVEAAVGGTVTIKCQASQSISSYLSWYQQKPGQPPKLLIYRASTLASGVPSRFRGSGSGTQFTLTISDLECADAATYYCQSYDDSSDNNFFYGFGGGTEVVVR",no binding (tested: 0.1 µg/ml),0,0
"1I14 (antibody, V domains shown, also called MAGE-B2 (1i14)) VH: QSVEESGGRLVTPGTPLTLTCTISGFSLSSYAMSWVRQAPGKGLEWIGSIGGGGSAVYASWAKGRFTISKTSTTVDLRITSPTTEDTAMYFCGRGFYSIDLWGPGTLVTVSS VL: DVVMTQTPASVEATVGGTVTIKCQSSQSVYDNNALAWYQQNAGQRPRLLIYGASTLASGVPSRFSASGSGTEFTLTISDLECADAATYYCQCTYYVSSYQNDFGGGTEVVVKG",no binding (tested: 0.1 µg/ml),0,0

# — patent US20250282887A1 (Amgen, published 2025)
